The values that follow come from patent publication US20210284695A1, “FOLDED AND PROTEASE-RESISTANT POLYPEPTIDES” (UNIVERSITY OF WASHINGTON, priority 2017, published 2021).

The data set is classed as physicochemical. As to the method: FIG. 2. Biophysical characterization of designed minimal proteins. (A) Design models and NMR solution ensembles for designed minimal proteins. (B) Far-ultraviolet circular dichroism (CD) spectra at 25° C. (black), 95° C. (red), and 25° C. following melting (blue). (C) Thermal melting curves measured by CD at 220 nm. Melting temperatures determined using the derivative of the curve. (D) Chemical denaturation in GuHCl measured by CD at 220 nm and 25° C. Unfolding free energies determined by fitting to a two-state model (red solid line).
Far-ultraviolet CD measurements were carried out with an AVIV spectrometer, model 420. Wavelength scans were measured from 260 to 195 nm at 25 and 95° C. Temperature melts monitored dichroism signal at 220 nm in steps of 2° C./minute with 30 s of equilibration time. […] The GuHCl concentration was determined by refractive index in PBS buffer. The denaturation process monitored dichroism signal at 220 nm in steps of 0.2 M GdmCl with 1 minute mixing time for each step, at 25° C. Protein concentrations were determined by absorbance at 280 nm measured using a NanoDrop™ spectrophotometer (Thermo Scientific) using predicted extinction coefficients (65). Protein concentrations for designs lacking aromatic amino acids were measured by Qubit™ protein assay (ThermoFisher Scientific). […]

“TTVKGDIKVTFDNPEKAKKYAQKLAKIYQLTVHVHGDTIHVK [EEHEE_rd3_1049]”: the “stability of purified design (CD, in words)” value is on record as “very stable”.
